Reference: US7598032B2, “Thermostable DNA polymerases incorporating nucleoside triphosphates labeled with fluorescent dyes” (Roche Molecular Systems, priority 1997, dated 2009)

Test system: primer annealed to an M13 template
Test: Extension rate assay
Type: biochemical
Conditions: for extension rate, Base Pairs/Sec: 75° C
Description: The extension rate of G46D F667Y Taq and G46D F667Y E681K Taq were determined using an extension rate assay. In this experiment, the enzymes were used to extend a primer annealed to an M13 template in the presence of [α-^33P]dCTP. The extension reactions were denatured and the products analyzed by denaturing agarose gel electrophoresis.
The assay was performed as previously described (Lawyer et al., 1989, J. Biol. Chem. 264:6427) including the following modifications. The assay mixture was composed so the final concentration was 50 mM Bicine pH 8.3, 25° C., 2.5 mM MgCl2, 1 mM β-mercaptoethanol, 200 μM each of dATP, dGTP and dTTP (Perkin-Elmer), 100 μM dCTP (Perkin-Elmer) containing [α-^33P]dCTP (New England Nuclear, Boston, Mass.). M13 mp18 (Perkin-Elmer) was annealed to primer DG48, (SEQ ID NO: 11), and the equivalent of 0.085 pmoles of the annealed template was added to the assay mixture for each reaction. Forty-five μl of the assay mixture with template DNA was added to each of fourteen 0.5 ml eppendorf tubes. Each tube was preincubated at 75° C. for at least 30 seconds before the start of the polymerase reaction.
Polymerization was initiated in six of the fourteen assay tubes with 5 μl of G46D F667Y Taq DNA polymerase (2.5 units) or G46D F667Y E681K Taq DNA polymerase (1.25 units). Both enzymes were prepared as in Example I and the concentration used represents a predetermined excess amount of enzyme for the amount of substrate in the assay. As a control for the level of background, the remaining negative control was initiated with enzyme dilution buffer rather than polymerase. All reaction tubes were immediately vortexed briefly and incubated at 75° C. Two of the six tubes containing G46D F667Y Taq DNA polymerase were incubated 3 minutes, two for 6 minutes and two for 10 minutes. Similarly, two of the tubes started with G46D F667Y E681K Taq DNA polymerase were incubated for 30 seconds, two for 1 minute and two for 2 minutes. The control tubes were incubated for 3 minutes. The reactions were stopped by addition of 10 μl 60 mM EDTA and stored at 0° C.
For each reaction, a 25 μl aliquot of the 60 μl reaction was diluted with 1 ml 2 mM EDTA, 50 μg/ml sheared salmon sperm DNA as a carrier. The DNA was precipitated with TCA using standard procedures and collected on GF/C filter discs (Whatman). The amount of incorporated [α-^33P]dCMP was determined for each sample.
The remaining 35 μl of each duplicated were combined and the 70 μl sample was ethanol precipitated, dried and resuspended in 50 mM NaOH, 1 mM EDTA. Aliquots were removed from these samples such that an equal number of α-^33P] counts were taken from each. These aliquots were loaded on an 0.9% alkaline agarose gel, electrophoresed, dried and autoradiographed as previously described (Maniatis et al., 1982, In Molecular Cloning: A Laboratory Manual, Cold Spring Harbor Laboratory, Cold Spring Harbor, N.Y.) Bacteriophage lambda DNA cut with restriction enzyme HindIII (BRL) and 5′ end-labeled with [^32P] was used as a molecular weight standard.
The length in base pairs of the extension product in each sample was determined by comparison of the migration distance of each sample with the distance migrated by the lambda DNA size standard. The number of base pairs in each product was divided by the number of seconds each extension reaction incubated to give the extension rate as shown below.

B1: G46D F667Y E681K Taq: thermostable Taq DNA polymerase with G46D, F667Y and E681K mutations, encoded by plasmid pLK113 (protein, UniProt P19821 1-832, looked up, variant G46D F667Y E681K)
DNA polymerase I, thermostable: MRGMLPLFEPKGRVLLVDGHHLAYRTFHALKGLTTSRGEPVQAVYDFAKSLLKALKEDGDAVIVVFDAKAPSFRHEAYGGYKAGRAPTPEDFPRQLALIKELVDLLGLARLEVPGYEADDVLASLAKKAEKEGYEVRILTADKDLYQLLSDRIHVLHPEGYLITPAWLWEKYGLRPDQWADYRALTGDESDNLPGVKGIGEKTARKLLEEWGSLEALLKNLDRLKPAIREKILAHMDDLKLSWDLAKVRTDLPLEVDFAKRREPDRERLRAFLERLEFGSLLHEFGLLESPKALEEAPWPPPEGAFVGFVLSRKEPMWADLLALAAARGGRVHRAPEPYKALRDLKEARGLLAKDLSVLALREGLGLPPGDDPMLLAYLLDPSNTTPEGVARRYGGEWTEEAGERAALSERLFANLWGRLEGEERLLWLYREVERPLSAVLAHMEATGVRLDVAYLRALSLEVAEEIARLEAEVFRLAGHPFNLNSRDQLERVLFDELGLPAIGKTEKTGKRSTSAAVLEALREAHPIVEKILQYRELTKLKSTYIDPLPDLIHPRTGRLHTRFNQTATATGRLSSSDPNLQNIPVRTPLGQRIRRAFIAEEGWLLVALDYSQIELRVLAHLSGDENLIRVFQEGRDIHTETASWMFGVPREAVDPLMRRAAKTINYGVLYGMSAHRLSQKLAIPYEEAQAFIERYFQSFPKVRAWIEKTLEEGRRRGYVETLFGRRRYVPDLEARVKSVREAAERMAFNMPVQGTAADLMKLAMVKLFPRLEEMGARMLLQVHDELVLEAPKERAEAVARLAKEVMEGVYPLAVPLEVEVGIGEDWLSAKE
extension rate, Base Pairs/Sec (Time 30 sec.): 36.7 Base Pairs/Sec
extension rate, Base Pairs/Sec (Time 1 min.): 41.7 Base Pairs/Sec
extension rate, Base Pairs/Sec (Time 2 min): 52.9 Base Pairs/Sec
extension rate (in words) (relative to an enzyme with the F667Y mutation alone): significantly increased extension rate
